Data as given in patent US20040038338A1, “Influence of LRP cytoplasmic domain on Abeta production” (priority 2001, published 2004).
Entries after “also recorded” stand apart in the source; their conditions may differ.

Assays:
APP internalization = experiment: Internalization of cell surface APP by iodinated 1G7 antibody at 37° C.; type: cell-based, mouse; settings: LRP-CT expressed in APP751 expressing LRP−/− cells; 30 min at 37° C.; compared to LRP± cells
Experimental: To measure internalization of cell surface APP, iodinated 1G7 antibody was added to confluent cultures of LRP±, LRP−/−, or LRP−/−CT fibroblasts stably transfected with APP695 or APP751 at 37° C. for 30 min. After incubation, cells were rapidly chilled on ice, and the reaction was quenched by the addition of ice-cold binding medium. Chilled cells were extensively washed and remaining surface antibody was detached by two acid washes. The cells were then lysed and collected for analysis. Acid-labile and acid-resistant radioactivity represents the surface and internalized pools of APP, respectively. Specific binding was determined after subtraction of the radioactive counts obtained from parallel cultures of untransfected LRP± and LRP−/− fibroblasts. The ratio of acid-resistant to acid-labile counts therefore provided a measure of the internalized versus cell surface pools of APP. All experiments in this study were repeated one to three times. […]
RESULTS: An APP internalization assay was performed in LRP-deficient cells expressing either APP695 or APP751 using a protocol established in Inventors' laboratory in which iodinated APP monoclonal antibody (1G7) was added to cultured cells at 37° C. for 30 minutes [Koo E H and Squazzo S L. J. Biol. Chem. 269:17386-17389, 1994]. Internalized and cell surface APP can be rapidly determined by the acid resistant and acid labile pools, respectively. […]

APPs = APPs in medium by immunoprecipitation-western blotting, LRP−/− fibroblasts expressing LRP-CT constructs; type: cell-based, mouse; settings: construct expressed in LRP−/− fibroblasts expressing APP751; compared to LRP± control cells
Experimental: (§1) Mouse fibroblasts deficient in LRP (LRP−/−; PEA 13) and corresponding LRP expressing control cells (LRP±; PEA 10) were obtained from American Type Culture Collection (Rockville, Md., USA) and cultured as described previously (Kang et al., 2000). LRP deficient CHO cell line (13-5-1), CHO cell line expressing a LRP trafficking mutant (14-2-1), and corresponding CHO K1 control cells (kind gift of Dr. S. Leppla) were grown in alpha DMEM supplemented with 10% fetal bovine serum (FitzGerald et al., 1995). Human APP695 and APP751 were inserted into the pBabepuro retroviral expression vector (Morgenstern and Land, 1990) and transferred into GP+E86 packaging cell line. Stable transformants were selected with puromycin (5 μg/ml). After infection with recombinant viruses, mouse fibroblasts were selected with puromycin (2.5 μg/ml)and analyzed after clonal selection for equal APP expression. […] After infection with recombinant viruses, LRP−/− mouse fibroblasts were selected with hygromycin (2.5 μg/ml) and analyzed (LRP−/−CT). […]
(§2) For detection of intracellular proteins, cell extracts were prepared using an NP40 lysis buffer. […] Western blotting was carried out with the indicated antibodies and detected by enhanced chemiluminescence (Pierce). Quantitation of the chemiluminescence signal was carried out with a CCD camera imaging system (GeneGnome, Syngene, Frederick, Md.).

APP processing = experiment: Restoration of APP processing in LRP deficient cells (summary statements); type: cell-based; settings: construct expressed in LRP deficient cells
Aβ secretion [1] = experiment: Aβ secretion, transient expression of LRP-CT in N2A mouse neuroblastoma cells; type: cell-based
[2] = test system: APP processing in CHO 13-5-1 cells; experiment: Transient expression of LRP-CT constructs in LRP deficient CHO 13-5-1 cells, APP-CTF and APPs by immunoblotting; type: cell-based; settings: LRP−/− CHO 13-5-1 cells; compared to control levels
Experimental: as §1, §2

cell surface APP = experiment: Cell surface APP by iodinated 1G7 antibody at 4° C.; type: cell-based, mouse; settings: LRP-CT expressed in LRP−/− cells expressing APP751
Experimental: To measure APP surface expression or internalization of surface APP, iodinated 1G7 monoclonal antibody was added to the cells in triplicate exactly as described previously (Koo et al., 1996). For the measurement of cell surface APP, the iodinated antibody was added to APP transfected LRP± and LRP−/− fibroblasts at 4° C. for 30 min followed by extensive washes. Specific binding was calculated after subtraction of the radioactivity obtained from parallel cultures of untransfected LRP± and LRP−/− fibroblasts, respectively. The radioactivity was then normalized to the rate of production of APP, which was determined in parallel cultures. The latter cells were metabolically labeled as described before and immunoprecipitated with polyclonal APP antibody to the C-terminus (CT15). Immunoprecipitates were subjected to SDS-PAGE, gels were dried and the APP signal was quantified by phosphor imaging.

APP-CTF = APP-CTF levels by immunoblotting (CT15) after expression of LRP-CT constructs in LRP−/− fibroblasts; type: cell-based, mouse; settings: construct expressed in LRP−/− fibroblasts expressing APP751; compared to LRP± control cells
Experimental: as §1, §2

Aβ = Aβ ELISA of medium from LRP−/− fibroblasts expressing LRP-CT; type: cell-based, mouse; settings: LRP-CT expressed in LRP−/− cells transfected with APP751; 72 hour collection; compared to LRP± cells
Experimental: Media from LRP−/−, LRP± LRP−/−CT fibroblasts was collected after an incubation period of 72 hours in serum free IS-CHO medium. Debris was removed by centrifugation (13,000 rpm for 20 min) and the supernatants were subjected to Aβ40 quantification using a standard sandwich ELISA described previously (Kang et al., 2000).

APP = target: T1, APP (Homo sapiens, UniProt P05067); experiment: APP and LRP co-immunoprecipitation; type: binding; settings: transfected cells
T1 construct: expressed in transfected cells

Aβ secretion [3] = experiment: Aβ secretion from APP751-expressing CHO cells transfected with LRP-CT; type: cell-based; settings: LRP-CT overexpressed in APP751-expressing CHO cells (LRP +/+)
Aβ secretion [4] = experiment: Aβ secretion, transient expression of LRP-CT in human glioma cells; type: cell-based

B1: LRP-CT: last 370 amino acids of the LRP β-subunit, transmembrane domain and entire cytoplasmic region, with signal peptide (protein)
chain: KRLDNGTCVPVPSPTPPPDAPRPGTCNLQCFNGGSCFLNARRQPKCRCQPRYTGDKCELDQCWEHCRNGGTCAASPSGMPTCRCPTGFTGPKCTQQVCAGYCANNSTCTVNQGNQPQCRCLPGFLGDRCQYRQCSGYCENFGTCQMAADGSRQCRCTAYFEGSRCEVNKCSRCLEGACVVNKQSGDVTCNCTDGRVAPSCLTCVGHCSNGGSCTMNSKMMPECQCPPHMTGPRCEEHVFSQQQPGHIASILIPLLLLLLLVLVAGVVFWYKRRVQGAKGFQHQRMTNGAMNVEIGNPTYKMYEGGEPDDVGGLLDADFALDPDKPTNFTNPVYATLYMGGHGSRHSLASTDEKRELLGRGPEDEIGDPLA
APP internalization from the cell surface (APP internalization): largely restored to control level; also recorded: restored to almost control levels; also recorded: can be restored; also recorded: similarly restored; also recorded: partially restored | levels of APPs in medium (APPs secretion) (APPs): restored the levels of APPs back to the levels seen in APP751 overexpressing cells; also recorded: restored to control levels; also recorded: restores the abnormal levels of APPs; also recorded: restored to normal levels; also recorded: can be restored | APP processing steps altered in the absence of LRP (APP processing): can be restored; also recorded: partial to full restoration | Aβ secretion (Aβ secretion [1]): likewise reduced Aβ secretion | deficiencies in APP processing [2]: able to restore the deficiencies in APP processing in LRP−/− CHO 13-5-1 cells to control levels | amount of cell surface APP (cell surface APP): did not alter the amount of cell surface APP | levels of APP-CTF (APP-CTF): restored to levels similar to LRP± cells; also recorded: restored to control levels; also recorded: can be restored; also recorded: restored to the level seen in LRP± cells | Aβ level in medium (Aβ): restored to control level present in LRP± control cells; also recorded: restored the Aβ levels back to control conditions; also recorded: can be restored | co-immunoprecipitation with APP (APP): can not only co-IP APP with LRP, but also with LRP-CT; also recorded: APP complexes with LRP-CT | Aβ secretion (Aβ secretion [3]): inhibited Aβ secretion; also recorded: dramatically inhibited; also recorded: reduce Aβ secretion in proportion to level of expression | Aβ secretion (Aβ secretion [4]): likewise reduced Aβ secretion
